Assay results from the supplement of paper PMC10567573.

B1: TMEM106C (parent)
chain: SEQLVNFTGKAEMGGPFSYVYFFC
B2: STEAP1 (parent)
chain: LWKMKPRRNLEEDDYLHKDTGETS

Variants of: B1
Test: protein stability index of a GFP-peptide fusion (GPS, HEK-293T) (PSI 1-6); higher = more stable
Conditions: c terminus: a fixed tail appended
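Also: lentivirally expressed fusions sorted by FACS into six bins by GFP to DsRed ratio, PSI derived from sequencing read proportions per bin multiplied by bin number.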

Protein stability index of substitutions, site by site:
E2: C 2.18; D 3.75; A 2.44
S1: P 2.9; G 3.79; L 3.63; H 3.23; V 3.6; R 3.55; N 2.85; K 2.67; T 3.09; F 2.65; E 2.98; I 3.37; Q 2.63; D 1.62; M 3.28; A 2.51; C 2.6; W 2.49; Y 1.72

Variants of: B2
Test: as above
Conditions: c terminus: a fixed tail appended

Protein stability index, by site and new letter:
E12: V 4.09; M 3.63; L 3.74; F 3.51; P 4.26; S 4.45; K 4.25; N 4.15; Y 3.3; Q 4.23; D 4.46; I 3.66; R 4.07; G 4.16; H 3.75; T 4.28; C 3.96; A 4.06; W 3.16
T20: C 4.31; D 5.09; Q 4.71; Y 3.74; N 4.46; R 4.44; F 3.51; K 3.6; P 4.51; I 4.12; A 4.39; H 4.26; M 3.84; W 3.85; E 4.8; L 4.13; S 4.19; G 4.58; V 4.05
H17: S 4.54; M 4.29; T 4.82; A 4.93; G 4.5; D 4.94; Y 4.38; L 4.09; E 4.35; Q 4.68; V 4.71; C 4.32; F 4.16; N 4.28; I 4.11; W 3.84; P 4.8; K 4.38; R 4.41
G21: F 3.92; V 3.64; H 4.42; Q 4.33; L 3.91; M 3.93; R 3.89; A 4.65; C 4.21; T 4.49; I 3.31; N 4.36; P 4.77; S 4.59; W 3.15; E 4.65; Y 4.08; D 4.25; K 4.26
D19: S 3.48; I 3.46; H 3.83; M 3.81; T 3.83; P 4.36; G 4.45; C 3.8; A 3.94; Y 3.81; E 4.41; V 3.43; F 3; Q 4.1; N 4.39; R 4.09; L 3.33; W 2.87; K 4.23
D13: R 4.15; K 4.43; E 4.84; F 3.83; T 4.19; A 3.94; W 3.21; V 3.87; H 3.88; P 4.45; G 4.61; Q 4.63; Y 4.17; S 3.85; N 4.35; I 3.84; C 3.65; M 3.8; L 3.88
N9: M 4.36; H 4.47; W 3.08; C 3.81; S 4.56; E 4.49; A 4.41; K 4.44; F 4.06; P 4.11; I 4.15; T 4.49; R 4.23; D 4.53; Y 4.07; Q 4.41; G 4.58; L 4.15; V 4.18
E22: Y 3.46; D 4.47; I 3.73; H 3.89; A 3.92; M 3.85; Q 4.11; R 3.69; L 4.13; G 4.37; T 3.7; K 3.83; V 3.86; S 4.08; W 2.56; N 4.22; P 3.98; F 3.83; C 4
K18: Y 4.03; L 3.93; H 4.62; C 4.28; W 3.81; V 4.21; F 3.38; E 4.87; M 4.29; T 4.6; Q 4.46; A 5.12; N 4.51; S 4.53; D 4.7; I 3.58; P 4.47; G 4.73; R 4.75
T23: A 4.63; Y 4.02; H 4.4; L 4.12; D 4.59; P 4.92; R 4.48; G 4.26; W 3.54; Q 4.52; C 4.05; F 3.92; E 5.03; S 4.77; N 4.37; I 3.53; M 3.99; V 4.12; K 4.73
E11: I 3.82; Q 4.12; M 3.96; D 4; K 4.58; G 3.93; H 4.26; P 4.2; L 3.88; R 4.04; Y 3.09; V 4.28; N 3.83; W 3.22; T 4.15; A 3.89; F 3.61; S 4.06; C 3.79
D14: H 4.18; R 4.7; F 3.74; W 3.11; K 4.53; P 4.34; E 4.63; G 4.31; I 3.84; A 4.21; M 4; N 4.4; Y 3.87; C 4.23; V 4.07; T 4.46; Q 4.32; S 4.18; L 3.8
S24: H 4.31; P 4.3; T 4.6; V 4.38; N 4.72; M 4.16; D 4.65; C 3.89; A 4.61; Q 3.85; W 3.5; G 4.46; F 4.22; R 3.97; K 4.47; Y 4.11; E 4.52; L 4.1; I 3.96
R8: P 4.61; V 4.08; W 3.82; S 4.43; N 4.53; T 4.47; Q 4.67; Y 4.04
L16: C 4.63; N 4.97; P 4.2; H 4.36; F 4.26; Y 4.14; V 4.52; Q 4.87; R 4.1; D 4.92; M 4.24; A 4.74; T 4.74; E 4.79; K 4.59; W 4.19; I 4.23; G 5.08; S 4.6
Y15: D 5.15; V 5.07; W 4.26; P 4.81; N 4.57; M 4.68; E 4.77; S 5.16; R 4.53; I 3.61; C 4.66; Q 4.92; G 4.83; L 4.33; F 4.14; K 4.84; T 5.04; H 4.66; A 5.02
L10: Y 4.1; T 4.69; E 4.89; N 4.4; W 4.41; C 3.9; I 4.67; G 4.02; P 4.86; D 4.9; M 4.26; K 4.48; V 4.34; F 4.24; Q 4.72; H 4.22; S 5.12; A 4.86; R 4.24
